Positions of bridges follow the written chain, without caps; N, C: chain ends.
T1: chick N-cadherin expressed on transfected 3T3 cells (chick, UniProt P10288 165-912)
T1 sequence (looked up): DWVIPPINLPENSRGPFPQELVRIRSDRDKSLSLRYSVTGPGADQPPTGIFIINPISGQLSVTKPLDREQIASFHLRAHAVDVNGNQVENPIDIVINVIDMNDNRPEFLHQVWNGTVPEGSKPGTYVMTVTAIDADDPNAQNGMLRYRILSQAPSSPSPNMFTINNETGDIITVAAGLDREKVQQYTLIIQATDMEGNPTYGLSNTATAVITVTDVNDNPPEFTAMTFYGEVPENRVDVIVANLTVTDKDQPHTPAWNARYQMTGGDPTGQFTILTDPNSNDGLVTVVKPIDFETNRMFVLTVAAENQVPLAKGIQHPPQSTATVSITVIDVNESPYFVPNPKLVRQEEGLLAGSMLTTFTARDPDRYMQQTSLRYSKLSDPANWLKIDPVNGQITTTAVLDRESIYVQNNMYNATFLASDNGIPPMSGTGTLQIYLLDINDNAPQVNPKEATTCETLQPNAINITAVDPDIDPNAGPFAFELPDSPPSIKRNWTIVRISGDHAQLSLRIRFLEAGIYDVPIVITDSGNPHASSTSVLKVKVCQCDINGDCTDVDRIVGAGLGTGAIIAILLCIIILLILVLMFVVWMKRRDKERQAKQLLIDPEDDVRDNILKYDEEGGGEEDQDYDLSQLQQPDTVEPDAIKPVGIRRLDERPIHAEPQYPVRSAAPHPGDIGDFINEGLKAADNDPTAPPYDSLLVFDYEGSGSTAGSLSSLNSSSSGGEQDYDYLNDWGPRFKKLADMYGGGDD

B1: N-Ac-CLRAHAVC-NH2 (peptide)
peptide: Ac-CLRAHAVC-NH2
modifications: disulfide 1-8 (inferred)
B2: N-Ac-CSHAVSSC-NH2 (peptide)
peptide: Ac-CSHAVSSC-NH2
modifications: disulfide 1-8
SMILES: CC(=O)N[C@H]1CSSC[C@@H](C(N)=O)NC(=O)[C@H](CO)NC(=O)[C@H](CO)NC(=O)[C@H](C(C)C)NC(=O)[C@H](C)NC(=O)[C@H](Cc2c[nH]cn2)NC(=O)[C@H](CO)NC1=O
B3: H-CHGVC-NH2 (peptide)
peptide: H-CHGVC-NH2
modifications: disulfide 1-5 (inferred)
B4: N-Ac-CLRAHGVC-NH2 (peptide)
peptide: Ac-CLRAHGVC-NH2
modifications: disulfide 1-8 (inferred)
B5: N-Ac-CAHAVC-NH2 (peptide)
peptide: Ac-CAHAVC-NH2
modifications: disulfide 1-6 (inferred)
B6: N-Ac-CAHGVDIC-NH2 (peptide)
peptide: Ac-CAHGVDIC-NH2
modifications: disulfide 1-8 (inferred)
B7: H-CAHGVDC-NH2 (peptide)
peptide: H-CAHGVDC-NH2
modifications: disulfide 1-7 (inferred)
B8: N-Ac-CSHGVC-NH2 (peptide)
peptide: Ac-CSHGVC-NH2
modifications: disulfide 1-6
SMILES: CC(=O)N[C@H]1CSSC[C@@H](C(N)=O)NC(=O)[C@H](C(C)C)NC(=O)CNC(=O)[C@H](Cc2c[nH]cn2)NC(=O)[C@H](CO)NC1=O
B9: H-KHAVD-NH2 (peptide)
peptide: H-KHAVD-NH2
modifications: lactam 1-5 (inferred)
B10: N-Ac-CLRAHGVDC-NH2 (peptide)
peptide: Ac-CLRAHGVDC-NH2
modifications: disulfide 1-9 (inferred)
B11: N-Ac-KHGVD-NH2 (peptide)
peptide: Ac-KHGVD-NH2
modifications: lactam 1-5 (inferred)
B12: N-Ac-CHGVC-NH2 (peptide)
peptide: Ac-CHGVC-NH2
modifications: disulfide 1-5 (inferred)
B13: N-Ac-CHGVSC-NH2 (peptide)
peptide: Ac-CHGVSC-NH2
modifications: disulfide 1-6 (inferred)
B14: N-Ac-CAHGVC-NH2 (peptide)
peptide: Ac-CAHGVC-NH2
modifications: disulfide 1-6 (inferred)
B15: N-Ac-CLRAHAVDC-NH2 (peptide)
peptide: Ac-CLRAHAVDC-NH2
modifications: disulfide 1-9 (inferred)
B16: N-Ac-CHAVSC-NH2 (peptide)
peptide: Ac-CHAVSC-NH2
modifications: disulfide 1-6 (inferred)
B17: N-Ac-CSHAVSC-NH2 (peptide)
peptide: Ac-CSHAVSC-NH2
modifications: disulfide 1-7
SMILES: CC(=O)N[C@H]1CSSC[C@@H](C(N)=O)NC(=O)[C@H](CO)NC(=O)[C@H](C(C)C)NC(=O)[C@H](C)NC(=O)[C@H](Cc2c[nH]cn2)NC(=O)[C@H](CO)NC1=O
B18: H-CAHGVDIC-NH2 (peptide)
peptide: H-CAHGVDIC-NH2
modifications: disulfide 1-8 (inferred)
B19: N-Ac-CSHGVSC-NH2 (peptide)
peptide: Ac-CSHGVSC-NH2
modifications: disulfide 1-7
SMILES: CC(=O)N[C@H]1CSSC[C@@H](C(N)=O)NC(=O)[C@H](CO)NC(=O)[C@H](C(C)C)NC(=O)CNC(=O)[C@H](Cc2c[nH]cn2)NC(=O)[C@H](CO)NC1=O
B20: N-Ac-CHGVDC-NH2 (peptide)
peptide: Ac-CHGVDC-NH2
modifications: disulfide 1-6 (inferred)
B21: N-Ac-CAHAVDC-NH2 (peptide)
peptide: Ac-CAHAVDC-NH2
modifications: disulfide 1-7 (inferred)
B22: N-Ac-CRAHAVDC-NH2 (peptide)
peptide: Ac-CRAHAVDC-NH2
modifications: disulfide 1-8 (inferred)
B23: N-Ac-CRAHGVDC-NH2 (peptide)
peptide: Ac-CRAHGVDC-NH2
modifications: disulfide 1-8 (inferred)
B24: N-Ac-KHAVD-NH2 (peptide)
peptide: Ac-KHAVD-NH2
modifications: lactam 1-5 (inferred)
B25: N-Ac-CAHAVDIC-NH2 (peptide)
peptide: Ac-CAHAVDIC-NH2
modifications: disulfide 1-8 (inferred)
B26: N-Ac-CAHGVDC-NH2 (peptide)
peptide: Ac-CAHGVDC-NH2
modifications: disulfide 1-7 (inferred)
B27: H-KHGVD-NH2 (peptide)
peptide: H-KHGVD-NH2
modifications: lactam 1-5 (inferred)

Legend:
[1] = biological target: T1, chick N-cadherin expressed on …; assay: cell-based or functional assay
[2] = biological target: N-cadherin expressed on transfected 3T3 cells (Examples 2 and 21); assay: cell-based or functional assay

Row | % inhibition of N-cadherin dependent neurite outgrowth (peptide 250 µg/mL) [1] [%] | % Inhibition of neurite outgrowth, 250 µg/mL (rat neurons) [2] [%] | Binder
1 | 9.9 | 0 | B1
2 | -12.6 | 0 | B2
3 | 7.8 | 0 | B3
4 | -0.5 | 0 | B4
5 | 58.5 | 51 | B5
6 | 4.8 | 0 | B6
7 | 5.7 | 0 | B7
8 | 12.5 | 0 | B8
9 |  | 0 | B9
10 | -6.8 | 0 | B10
11 |  | 0 | B11
12 | 4.8 | 0 | B12
13 | -6.7 | 0 | B13
14 | -6.4 | 0 | B14
15 | 76.3 | 60 | B15
16 | -2.5 | 0 | B16
17 | 8.3 | 0 | B17
18 | 7.2 | 0 | B18
19 | 10.8 | 0 | B19
20 | -8.6 | 0 | B20
21 | 13.3 |  | B21
22 | -5 | 0 | B22
23 | -8 | 0 | B23
24 |  | 0 | B24
25 | 89.4 | 82 | B25
26 | 4 |  | B26
27 |  | 0 | B27

Reference: US20040106545A1 (MCGILL UNIVERSITY, published 2004)
